Series [1] deals with T1, bovine heart E2 of the native bovine PDC core (bE2/E3BP) (bovine, UniProt P11180 87-647).
T1 construct: E2 (dihydrolipoamide acetyltransferase) of bovine heart pyruvate dehydrogenase complex, native; also called E2 of bE2/E3BP; source: purified from bovine heart PDC (sucrose gradients in 2 M NaCl), as bE2/E3BP core
T1 sequence (looked up): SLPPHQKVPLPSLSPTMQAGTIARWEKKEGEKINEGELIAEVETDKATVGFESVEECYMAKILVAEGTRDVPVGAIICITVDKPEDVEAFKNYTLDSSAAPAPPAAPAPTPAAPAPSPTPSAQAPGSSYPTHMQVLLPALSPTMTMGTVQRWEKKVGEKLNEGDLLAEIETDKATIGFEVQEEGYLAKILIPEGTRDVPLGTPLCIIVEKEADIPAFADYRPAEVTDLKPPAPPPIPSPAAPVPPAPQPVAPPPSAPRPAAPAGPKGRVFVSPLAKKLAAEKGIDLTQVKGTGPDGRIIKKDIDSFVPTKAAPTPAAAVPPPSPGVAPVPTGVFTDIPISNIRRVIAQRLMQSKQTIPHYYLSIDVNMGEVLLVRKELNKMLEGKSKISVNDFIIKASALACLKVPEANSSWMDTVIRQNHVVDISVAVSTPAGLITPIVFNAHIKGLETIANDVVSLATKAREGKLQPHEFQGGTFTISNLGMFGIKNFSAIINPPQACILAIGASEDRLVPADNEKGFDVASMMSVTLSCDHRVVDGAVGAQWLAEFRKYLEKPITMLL
The series is described as follows: SAXS; beamline X33 EMBL/DESY; PEBS100 buffer; 830.9 nM rE2/E3BP and 183.1 nM bE2/E3BP used for ab initio modelling (GASBOR, icosahedral symmetry). Conditions: both partners purified.

Series [2] deals with the molecule itself. The series is described as follows: AUC; sedimentation velocity of the cores; 76-306 nM rE2/E3BP, 60-260 nM rE2, 116-730 nM tE2/E3BP; PEBS100 buffer (2 mM EDTA, 100 mM NaCl, 50 mM KH2PO4, pH 7.5); 20,000 rpm, 4 °C; interference optics.

Usually stoichiometry N stands for the number of molecules, sites or subunits per partner or assembly.

B1: bovine heart E3BP of the native bovine PDC core (bE2/E3BP) (natural protein, UniProt P22439 54-501, looked up)
chain: ADPIKILMPSLSPTMEEGNIVKWLKKEGEAVSAGDALCEIETDKAVVTLDASDDGILAKIVVAEGSKNIRLGSLIGLLVEEGEDWKHVEIPKDTGPPPPAAKPSVPPPSAEPQIATPVKKEHPPGKVQFRLSPAARNILEKHALDANQGTATGPRGIFTKEDALKLVQLKQTGKITEPRPTAALPTTPAAPLPPQAAATASYPRPMIPPVSTPGQPNVEGTFTEIPASNIRRVIAKRLTESKSTIPHAYATTDCDLGAVLTARQNLVRDDIKVSVNDFIIKAAAVTLKQMPNVNASWDGEGAKQLPSIDISVAVATDRGLITPVIKDAAAKGLQEIADSVKALSKKARDGKLLPEEYQGGSFSISNLGMFGIDEFTAVINPPQACILAVGRFRPVLKLTQDEEGNAQLQQRQLITVTMSSDSRVVDDELATRFLESFKANLENPLRLA
notes: also called E3BP of bE2/E3BP; source: purified from bovine heart PDC (sucrose gradients in 2 M NaCl), as bE2/E3BP core
Turning to B1, the binding result in series [1] is recorded as “binds”.

B2: recombinant full-length E2-only PDC core (rE2); dihydrolipoamide acetyltransferase of human pyruvate dehydrogenase complex (enzyme, UniProt P10515 87-647, looked up)
chain: SLPPHQKVPLPSLSPTMQAGTIARWEKKEGDKINEGDLIAEVETDKATVGFESLEECYMAKILVAEGTRDVPIGAIICITVGKPEDIEAFKNYTLDSSAAPTPQAAPAPTPAATASPPTPSAQAPGSSYPPHMQVLLPALSPTMTMGTVQRWEKKVGEKLSEGDLLAEIETDKATIGFEVQEEGYLAKILVPEGTRDVPLGTPLCIIVEKEADISAFADYRPTEVTDLKPQVPPPTPPPVAAVPPTPQPLAPTPSAPCPATPAGPKGRVFVSPLAKKLAVEKGIDLTQVKGTGPDGRITKKDIDSFVPSKVAPAPAAVVPPTGPGMAPVPTGVFTDIPISNIRRVIAQRLMQSKQTIPHYYLSIDVNMGEVLLVRKELNKILEGRSKISVNDFIIKASALACLKVPEANSSWMDTVIRQNHVVDVSVAVSTPAGLITPIVFNAHIKGVETIANDVVSLATKAREGKLQPHEFQGGTFTISNLGMFGIKNFSAIINPPQACILAIGASEDKLVPADNEKGFDVASMMSVTLSCDHRVVDGAVGAQWLAEFRKYLEKPITMLL
notes: E2 (dihydrolipoamide acetyltransferase) of the human pyruvate dehydrogenase complex, full-length recombinant; monomer printed as 61 kDa; 60-mer mass from composition 3,741,780 Da; Cultures were supplemented with lipoic acid on induction; source: E. coli BL21 star (DE3), pET14b, purified (zinc chelate, anion exchange, gel filtration); not shown: His tag, N-terminal, kept; copies: 60
Turning to B2, the “stoichiometry N” value in series [2] was 60.

The values are drawn from article PMC2880790, “Solution Structure and Characterisation of the Human Pyruvate Dehydrogenase Complex Core Assembly” (Journal of Molecular Biology, 2010).
